Experimental data published in patent US20240317834A1, “COMPOSITIONS AND METHODS FOR NEUROLOGICAL DISEASES” (CODA BIOTHERAPEUTICS, INC., priority 2020, published 2024).

System: Lenti-X 293T cells
Experiment: YFP fluorescence quenching anion reporter plate reader assay of engineered receptors stimulated with acetylcholine or a non-native ligand
Format: cell-based
How it was run: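 Lenti-X 293T cells carrying a YFP anion reporter were transiently transfected with channel DNA and assayed the next day in HEPES-buffered ECS at pH 7.2. Ligand (acetylcholine or non-native ligand) was added in NaI-substituted ECS. Percent quench was the mean of the last 10 s relative to the 15 s pre-addition baseline.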

B1: CODA806: engineered chimeric LGIC receptor, Y115D, L131Q in SEQ ID NO: 33 (protein)
chain: MRCSPGGVWLALAASLLHVSLQGEFQRKLYKELVKNYNPLERPVANDSQPLTVYFSLSLLQIMDVDEKNQVLTTNIWLQMSWTDHYLQWNVSEYPGVKTVRFPDGQIWKPDILLDNSADERFDATFHTNVQVNSSGHCQYLPPGIFKSSCPMDLKNFPMDVQTCKLKFGSWSYGGWSLDLQMQEADISGYIPNGEWDLVGIPGKRSERFYECCKEPYPDVTFTVTMRRRMGYYLIQMYIPSLLIVILSWISFWINMDAAPARVGLGITTVLTMTTQSSGSRASLPKVSYVKAIDIWMAVCLLFVFSALLEYAAVNFVSRQHKELLRFRRKRRHHKSPMLNLFQEDEAGEGRFNFSAYGMGPACLQAKDGISVKGANNSNTTNPPPAPSKSPEEMRKLFIQRAKKIDKISRIGFPMAFLIFNMFYWIIYKIVRREDVHNQ
modifications: synthetic sequence of chimeric LGIC
B1 was tested, and the “YFP fluorescence quenching using CNL001” value (1 nM CNL001, first column) was 6.587%, the “YFP fluorescence quenching using CNL001” value (1 nM CNL001, second column) was −5.179% and the “YFP fluorescence quenching using TC-5619/Bradanicline” value (1 nM brd) was 0.92%. The “YFP fluorescence quenching using TC-5619/Bradanicline” value (3 nM brd) was −4.65%, the “YFP fluorescence quenching using CNL001” value (10 nM CNL001, first column) was −2.366% and the “YFP fluorescence quenching using CNL001” value (10 nM CNL001, second column) was −1.272%. For the same molecule, the “YFP fluorescence quenching using TC-5619/Bradanicline” value (10 nM brd) was 0.38%, the “YFP fluorescence quenching using TC-5619/Bradanicline” value (30 nM brd) was −8.96% and the “YFP fluorescence quenching using Facinicline” value (30 nM fac) was 41.32. The “YFP fluorescence quenching using CNL001” value (50 nM CNL001, first column) was 2.763%, the “YFP fluorescence quenching using CNL001” value (50 nM CNL001, second column) was 1.995% and the “YFP fluorescence quenching using ABT-126” value (50 nM abt) was −1.81%. For the same molecule, the “YFP fluorescence quenching using CNL001” value (100 nM CNL001, first column) was 3.091%, the “YFP fluorescence quenching using CNL001” value (100 nM CNL001, second column) was 1.45% and the “YFP fluorescence quenching using CNL002” value (100 nM CNL002) was −10.03%. For the same molecule, the “YFP fluorescence quenching using ABT-126” value (100 nM abt) was −2.61%, the “YFP fluorescence quenching using AZD-0328” value (100 nM azd0328) was 12.15% and the “YFP fluorescence quenching using TC-5619/Bradanicline” value (100 nM brd) was 12.18%. The “YFP fluorescence quenching using Facinicline” value (100 nM fac) was 59.51, the “YFP fluorescence quenching using ABT-126” value (300 nM abt) was −3.78% and the “YFP fluorescence quenching using AZD-0328” value (300 nM azd0328) was 30.92%. For the same molecule, the “YFP fluorescence quenching using TC-5619/Bradanicline” value (300 nM brd) was −0.3%, the “YFP fluorescence quenching using Facinicline” value (300 nM fac) was 74.86 and the “YFP fluorescence quenching using CNL001” value (1 uM CNL001, first column) was 7.331%. The “YFP fluorescence quenching using CNL001” value (1 uM CNL001, second column) was 9.103%, the “YFP fluorescence quenching using CNL002” value (1 uM CNL002) was −3.33% and the “YFP fluorescence quenching using ABT-126” value (1 uM abt) was −2.6%. The “YFP fluorescence quenching using TC-5619/Bradanicline” value (1 uM brd) was 45.47%, the “YFP fluorescence quenching using TC-6987” value (1 uM tc6987) was 38.83 and the “YFP fluorescence quenching using Facinicline” value (10 uM fac) was 78.53. The “YFP fluorescence quenching using TC-6987” value (10 uM tc6987) was 31.59, the “YFP fluorescence quenching using CNL002” value (30 uM CNL002) was 6.96% and the “YFP fluorescence quenching using AZD-0328” value (30 uM azd0328) was 68.65%. For the same molecule, the “YFP fluorescence quenching using Facinicline” value (30 uM fac) was 84.45, the “YFP fluorescence quenching using TC-6987” value (500 uM tc6987) was 29.83 and the “percent quench of YFP fluorescence, 10 uM ach” value (acetylcholine 10 uM) was 9.47%. For the same molecule, the “percent quench of YFP fluorescence, 100 uM ach” value (acetylcholine 100 uM) was 6.12%, the “percent quench of YFP fluorescence, 1 mM ach” value (acetylcholine 1 mM) was −1.56% and the “percent quench of YFP fluorescence, 3 mM ach” value (acetylcholine 3 mM) was 17.57%.
